{"source": "paper PMC7265302", "molecular_target": "MavC, wild type (Legionella pneumophila) (UniProt Q5ZTL4)", "experiment": "ITC", "data": [{"substance": "Lpg2149, wild type (from UniProt Q5ZTL2 1-119) (natural protein)", "values": [{"measurement": "Kd", "value": 0.57, "unit": "nM"}]}]}
